Reference: US20170343530A1

Target: mutant connector conjugated with a Strep-tag to its C-terminal
Experiment: cell-based or functional assay

Substance: streptavidin (coated on nanogold) (from UniProt P22629 37-163)
- three discrete steps of channel change (conductance assay): 32%
